The assay has as its target yeast-displayed E4 peptide. Put plainly: flow cytometry on cells; E4 displayed on yeast cells; FITC-K4-TAMRA added at 100 nM, 15 min, 4 °C, PBS containing 5% immunoblock, two washings; 488 nm laser, 525/50 and 585/30 filters. For orientation: In flow cytometry, cells or beads pass a laser one at a time.

No end group written: not given here. *: point of attachment. FITC = O=C1OC2(c3ccc(O)cc3Oc3cc(O)ccc32)c2ccc(NC(=S)*)cc21

Experimental findings from PMC8604967 are described below.

B1: FITC-K4-TAMRA (peptide)
peptide: {FITC}-KIAALKEKIAALKEKIAALKEKIAALKEC(5‑TAMRA C6 maleimide)
In turn, B1 came in with a mean FITC and TAMRA fluorescence of 10000.
